Measured values published in patent US11708609.

Target: human recombinant FOXO1 (Origene #TP300477) (UniProt Q12778)
Sequence (Q12778 whole entry): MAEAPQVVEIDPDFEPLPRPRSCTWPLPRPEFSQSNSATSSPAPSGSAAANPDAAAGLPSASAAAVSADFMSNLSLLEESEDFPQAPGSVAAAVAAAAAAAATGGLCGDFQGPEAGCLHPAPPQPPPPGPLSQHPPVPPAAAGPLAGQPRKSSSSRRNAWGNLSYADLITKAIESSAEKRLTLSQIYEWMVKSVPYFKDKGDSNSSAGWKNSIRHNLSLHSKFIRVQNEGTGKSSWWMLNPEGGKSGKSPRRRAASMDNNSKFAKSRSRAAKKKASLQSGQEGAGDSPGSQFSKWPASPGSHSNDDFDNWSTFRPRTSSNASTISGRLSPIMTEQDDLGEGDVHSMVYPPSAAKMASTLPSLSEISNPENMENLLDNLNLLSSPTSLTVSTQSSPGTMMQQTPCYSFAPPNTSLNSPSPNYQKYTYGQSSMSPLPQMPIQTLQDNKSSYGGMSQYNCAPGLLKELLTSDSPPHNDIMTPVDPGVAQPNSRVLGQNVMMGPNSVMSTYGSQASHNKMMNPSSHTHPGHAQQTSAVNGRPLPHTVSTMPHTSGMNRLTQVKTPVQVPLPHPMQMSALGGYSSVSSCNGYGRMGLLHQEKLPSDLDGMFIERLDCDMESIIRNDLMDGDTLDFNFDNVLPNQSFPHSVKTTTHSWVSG

Sequence of microtubule-associated Ser/Thr kinase 4 (MAST4), immunoprecipitated from lysates of neuron-differentiated SH-SY5Y cells or of human temporal lobe autopsy samples (chain, as listed by the source): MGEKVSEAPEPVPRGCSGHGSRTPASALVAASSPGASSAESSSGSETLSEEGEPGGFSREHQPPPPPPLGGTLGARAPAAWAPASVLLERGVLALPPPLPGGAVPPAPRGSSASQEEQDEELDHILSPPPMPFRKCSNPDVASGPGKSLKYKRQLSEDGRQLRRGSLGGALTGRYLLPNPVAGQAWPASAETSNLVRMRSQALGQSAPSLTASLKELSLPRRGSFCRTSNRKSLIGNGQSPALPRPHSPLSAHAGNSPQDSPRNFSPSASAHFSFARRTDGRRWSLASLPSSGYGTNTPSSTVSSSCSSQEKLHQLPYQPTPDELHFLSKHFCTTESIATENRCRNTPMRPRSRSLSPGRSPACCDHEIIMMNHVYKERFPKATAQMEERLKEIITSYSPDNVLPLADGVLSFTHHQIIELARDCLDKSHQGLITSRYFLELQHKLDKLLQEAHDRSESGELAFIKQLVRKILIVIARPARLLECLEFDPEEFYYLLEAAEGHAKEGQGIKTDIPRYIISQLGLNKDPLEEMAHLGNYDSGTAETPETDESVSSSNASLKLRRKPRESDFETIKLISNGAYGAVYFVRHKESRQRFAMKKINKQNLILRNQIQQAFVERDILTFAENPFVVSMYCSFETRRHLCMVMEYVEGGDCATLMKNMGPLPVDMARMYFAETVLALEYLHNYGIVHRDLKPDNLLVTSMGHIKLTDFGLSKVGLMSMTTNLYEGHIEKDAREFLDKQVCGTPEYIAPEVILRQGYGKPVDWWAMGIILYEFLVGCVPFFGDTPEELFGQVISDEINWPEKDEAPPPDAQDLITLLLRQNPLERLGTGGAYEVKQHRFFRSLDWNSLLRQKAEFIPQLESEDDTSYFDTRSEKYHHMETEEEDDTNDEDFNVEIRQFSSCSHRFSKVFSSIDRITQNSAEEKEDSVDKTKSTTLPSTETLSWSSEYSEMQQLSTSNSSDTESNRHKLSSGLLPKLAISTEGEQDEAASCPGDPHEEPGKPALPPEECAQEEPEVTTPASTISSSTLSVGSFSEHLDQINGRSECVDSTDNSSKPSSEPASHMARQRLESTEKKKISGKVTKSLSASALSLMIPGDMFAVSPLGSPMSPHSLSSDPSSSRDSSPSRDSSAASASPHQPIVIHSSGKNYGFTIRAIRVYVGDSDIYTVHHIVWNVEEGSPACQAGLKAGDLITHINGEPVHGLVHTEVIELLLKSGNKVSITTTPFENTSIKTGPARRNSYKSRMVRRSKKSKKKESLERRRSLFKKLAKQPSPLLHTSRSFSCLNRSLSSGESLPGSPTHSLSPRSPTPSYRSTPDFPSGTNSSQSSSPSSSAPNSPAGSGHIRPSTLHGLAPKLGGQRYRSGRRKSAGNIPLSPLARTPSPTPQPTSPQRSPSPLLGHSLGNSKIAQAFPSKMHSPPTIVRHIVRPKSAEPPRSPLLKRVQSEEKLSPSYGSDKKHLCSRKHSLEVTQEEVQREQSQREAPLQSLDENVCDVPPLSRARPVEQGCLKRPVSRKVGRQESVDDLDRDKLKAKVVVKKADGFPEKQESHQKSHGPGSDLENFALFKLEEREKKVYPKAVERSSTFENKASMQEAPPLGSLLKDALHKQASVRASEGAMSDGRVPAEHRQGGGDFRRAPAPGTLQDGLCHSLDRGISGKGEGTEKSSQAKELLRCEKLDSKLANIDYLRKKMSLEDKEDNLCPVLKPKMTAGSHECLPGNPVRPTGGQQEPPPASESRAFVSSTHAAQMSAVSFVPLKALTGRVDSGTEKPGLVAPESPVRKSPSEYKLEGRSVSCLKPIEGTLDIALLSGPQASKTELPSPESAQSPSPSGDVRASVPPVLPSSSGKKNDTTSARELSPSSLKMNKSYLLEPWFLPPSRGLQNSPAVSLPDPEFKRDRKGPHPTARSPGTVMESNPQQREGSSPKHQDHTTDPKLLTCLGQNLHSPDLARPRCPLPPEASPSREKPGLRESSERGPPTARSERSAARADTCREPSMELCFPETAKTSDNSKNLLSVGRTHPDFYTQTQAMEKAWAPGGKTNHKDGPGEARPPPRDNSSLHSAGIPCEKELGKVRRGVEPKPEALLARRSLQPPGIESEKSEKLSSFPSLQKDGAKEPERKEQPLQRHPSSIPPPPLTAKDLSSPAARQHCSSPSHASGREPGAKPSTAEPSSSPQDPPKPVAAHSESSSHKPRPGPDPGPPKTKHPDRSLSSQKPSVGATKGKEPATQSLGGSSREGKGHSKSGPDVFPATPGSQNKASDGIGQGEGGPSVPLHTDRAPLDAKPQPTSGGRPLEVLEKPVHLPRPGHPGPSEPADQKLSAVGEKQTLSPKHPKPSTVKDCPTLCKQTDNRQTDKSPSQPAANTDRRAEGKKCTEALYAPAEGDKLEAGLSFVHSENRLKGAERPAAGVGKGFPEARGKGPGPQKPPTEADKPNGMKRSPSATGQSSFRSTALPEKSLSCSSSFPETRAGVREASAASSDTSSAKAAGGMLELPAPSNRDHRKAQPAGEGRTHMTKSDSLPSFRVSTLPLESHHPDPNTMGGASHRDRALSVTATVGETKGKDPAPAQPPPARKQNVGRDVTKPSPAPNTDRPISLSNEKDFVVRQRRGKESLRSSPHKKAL

Substance | FOXO1 phosphorylation in an in vitro kinase assay with immunoprecipitated MAST4 mutant | FOXO1 phosphorylation (pSer-FOXO1) in an in vitro kinase assay with immunoprecipitated MAST4 and recombinant FOXO1
MAST4E682A, putative kinase-null MAST4 mutant | Immunoprecipitates of MAST4E682A did not phosphorylate FOXO1 (not shown) | –
microtubule-associated Ser/Thr kinase 4 (MAST4), immunoprecipitated from lysates of neuron-differentiated SH-SY5Y cells or of human temporal lobe autopsy samples | – | Increased FOXO1 phosphorylation was observed in MAST4 immunoprecipitates from cells treated with 5 µM but not 50 µM 27OHC
